Results from paper PMC11649783, “Structural basis of 3′-tRNA maturation by the human mitochondrial RNase Z complex” (The EMBO Journal, 2024).

Molecular target: T1, SDR5C1 (human, UniProt Q99714 1-261)
T1 construct: expression construct as previously described (Reinhard et al, 2017); The subcomplex was purified by Ni2+ IMAC and treated with TEV protease; also called 4xSDR5C1
T1 sequence: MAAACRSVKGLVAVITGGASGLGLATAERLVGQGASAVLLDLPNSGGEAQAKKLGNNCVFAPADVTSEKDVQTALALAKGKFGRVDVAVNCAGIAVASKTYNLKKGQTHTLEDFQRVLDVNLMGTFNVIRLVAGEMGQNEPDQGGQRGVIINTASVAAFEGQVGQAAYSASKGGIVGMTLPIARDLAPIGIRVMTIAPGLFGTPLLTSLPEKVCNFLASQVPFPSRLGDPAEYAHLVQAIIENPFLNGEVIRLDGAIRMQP
Test: cryo-EM structure; RNase Z-HS product complex: assembled at 4 °C from 10 μM TRMT10C/SDR5C1, 20 μM ELAC2 and 20 μM mt-tRNA^His-Ser(AGY) precursor with 200 μM SAM in buffer D (20 mM HEPES 7.5, 50 mM NaCl, 1 mM MgCl2, 1 mM DTT), S200 size exclusion, incubated to complete turnover; 2.9 Å
Conditions: both partners purified

B1: TRMT10C (enzyme, human, UniProt Q7L0Y3 40-403, looked up)
chain: MSSKIPAVTYPKNESTPPSEELELDKWKTTMKSSVQEECVSTISSSKDEDPLAATREFIEMWRLLGREVPEHITEEELKTLMECVSNTAKKKYLKYLYTKEKVKKARQIKKEMKAAAREEAKNIKLLETTEEDKQKNFLFLRLWDRNMDIAMGWKGAQAMQFGQPLVFDMAYENYMKRKELQNTVSQLLESEGWNRRNVDPFHIYFCNLKIDGALHRELVKRYQEKWDKLLLTSTEKSHVDLFPKDSIIYLTADSPNVMTTFRHDKVYVIGSFVDKSMQPGTSLAKAKRLNLATECLPLDKYLQWEIGNKNLTLDQMIRILLCLKNNGNWQEALQFVPKRKHTGFLEISQHSQEFINRLKKAKT
notes: TRMT10C, human; expression construct as previously described (Reinhard et al, 2017); The subcomplex was purified by Ni2+ IMAC and treated with TEV protease
stoichiometry N: 2 mt-tRNA/TRMT10C per SDR5C1 tetramer
